Data on 1 substance can be found in PMC4858744, “Bifunctional CYP81AA proteins catalyse identical hydroxylations but alternative regioselective phenol couplings in plant xanthone biosynthesis” (Nature Communications, 2016).

The series relates to T1, NC(=O)C1=CN([C@@H]2O[C@H](COP(=O)(O)OP(=O)(O)OC[C@H]3O[C@@H](n4cnc5c(N)ncnc54)[C@H](OP(=O)(O)O)[C@@H]3O)[C@@H](O)[C@H]2O)C=CC1.
T1 construct: full-length, 712 residues, pESC-URA MCS2, yeast (S. cerevisiae INVSc1) microsomes
As to the kind of experiment: cytochrome c reduction, yeast microsomes. The conditions noted are these: electron acceptor cytochrome c. The series is classed as biochemical, Hypericum calycinum.

HcCPR2 (Hypericum calycinum), sequence (chain, as listed by the source): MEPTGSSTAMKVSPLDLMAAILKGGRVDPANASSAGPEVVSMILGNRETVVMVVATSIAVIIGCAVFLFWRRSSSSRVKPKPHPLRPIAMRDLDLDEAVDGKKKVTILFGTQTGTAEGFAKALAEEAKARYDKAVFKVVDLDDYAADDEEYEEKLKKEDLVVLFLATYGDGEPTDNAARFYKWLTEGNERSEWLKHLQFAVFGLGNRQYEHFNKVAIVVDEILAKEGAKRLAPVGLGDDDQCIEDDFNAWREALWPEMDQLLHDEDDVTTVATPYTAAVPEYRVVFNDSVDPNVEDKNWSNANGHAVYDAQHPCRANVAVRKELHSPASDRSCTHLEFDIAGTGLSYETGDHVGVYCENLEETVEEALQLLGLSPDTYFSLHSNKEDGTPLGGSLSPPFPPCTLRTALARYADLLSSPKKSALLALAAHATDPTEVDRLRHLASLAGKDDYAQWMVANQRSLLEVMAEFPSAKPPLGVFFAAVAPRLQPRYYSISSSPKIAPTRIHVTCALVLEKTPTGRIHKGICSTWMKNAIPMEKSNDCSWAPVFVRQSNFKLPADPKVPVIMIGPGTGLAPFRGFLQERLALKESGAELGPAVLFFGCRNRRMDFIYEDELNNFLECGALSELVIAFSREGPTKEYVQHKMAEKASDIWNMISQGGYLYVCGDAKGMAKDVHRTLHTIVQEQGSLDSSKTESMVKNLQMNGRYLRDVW

As to HcCPR2 (Hypericum calycinum), the Km amounted to 43.9 ± 6.5 µM.

As a reminder, the Km is the substrate concentration at which the rate is half of its maximum.
